± gives the standard deviation.
Assay: protein stability index of a GFP-peptide fusion (GPS, HEK-293T) (PSI 1-6); higher = more stable
Details: c terminus: a fixed tail appended
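Note: 24-mer peptide tiles fused after GFP, lentivirally expressed, FACS-sorted into six equal bins by GFP/DsRed ratio, decoded by Illumina sequencing, PSI is the read-weighted mean bin number.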

| Sequence | protein stability index (treatment: DMSO) | protein stability index (treatment: MLN4924 1 uM, 8 h) |
| --- | --- | --- |
| PFAPEPTPPTTTAEIATASASAST [SNAP91] | 5.37 ± 0.16 | 5.41 ± 0.14 |
| PFAYLTVLDLSKSLSAALLTAALL [POMT2] | 2.98 ± 0.23 | 3.02 ± 0.16 |
| PFREQSFLCAAGDAGEESRVQVLK [TIAF1] | 4.54 ± 0.25 | 4.6 ± 0.16 |
| PGAGVPSGSGGTVAPATMGSARSH [ZBTB22] | 4.75 ± 0.16 | 4.8 ± 0.15 |
| PGLLSLATTSASDSLKPEQLDIEE [TFE3] | 5.35 ± 0.23 | 5.55 ± 0.17 |
| PGRGHTHAAQGGPLLCPGCQGQPQ [ELOA2] | 4.38 ± 0.26 | 4.47 ± 0.14 |
| PGSMSEVQELCKQLHAKIDAAEEE [TNNI2] | 5.38 ± 0.27 | 5.36 ± 0.11 |
| PGYLPYSPEPPSLYGALNPQYEFK [IRX6] | 2.87 ± 0.36 | 3.16 ± 0.33 |
| PHTPGKPTSSCTSRSAPPGLQAPP [FOXJ1] | 4.42 ± 0.19 | 4.86 ± 0.18 |
| PKDIYSSFGFPRTVKHIDAALSEE [MMP1] | 3.9 ± 0.29 | 4.04 ± 0.23 |
| PKKPIGGNIIAHASTTRLYLRKGR [RAD51] | 3.79 ± 0.29 | 3.74 ± 0.17 |
| PKQLYFSARQGELQKVLLMLVDGI [EHMT1] | 2.66 ± 0.48 | 2.35 ± 0.58 |
| PKTGRISVPIDLQKVDQFDPFTVP [PRIM1] | 3.6 ± 0.33 | 3.34 ± 0.25 |
| PKTVQQPTESEPVTINIQDLLSCS [MATN2] | 4.35 ± 0.17 | 4.32 ± 0.16 |
| PKVEYVWRNIILMSLLHLGALYGI [SCD] | 3.26 ± 0.5 | 3.48 ± 0.06 |
| PLAVENQAGGEGAGGELGISLNMC [PBXIP1] | 4.22 ± 0.25 | 4.12 ± 0.24 |
| PLLCPSYQSYFKTIEELQQKILCS [KRT33B] | 2.56 ± 0.3 | 2.56 ± 0.17 |
| PLLKDEGFAVKALWGRTQEEAEEL [GFOD1] | 5 ± 0.62 | 4.915 ± 0.038 |
| PLSWAPCGPIAGSRQALSFEVPPC | 3.21 ± 0.29 | 3.07 ± 0.19 |
| PLTSTQGLEHAAAGGSSGTTARER [FBF1] | 5.36 ± 0.24 | 5.33 ± 0.3 |
| PMAADEGSAEKQAGEAHMAADGET [EHMT1] | 5.6 ± 0.17 | 5.66 ± 0.082 |
| PMPVSQECFETLRGDERILSILRH [CHGA] | 3.29 ± 0.23 | 3.02 ± 0.46 |
| PMVARYIRINPQSWFDNGSICMRM [CPXM2] | 2.82 ± 1.1 | 1.95 ± 0.38 |

| Sequence | protein stability index (treatment: DMSO) | protein stability index (treatment: MLN4924 1 uM, 8 h) |
| --- | --- | --- |
| PNGVQLSPAEDFVLVAETTMARIR [APMAP] | 3.21 ± 0.21 | 3.5 ± 0.22 |
| PPAALESSDSANTTIEDEDAKARK [CAMK2B] | 5.65 ± 0.15 | 5.7 ± 0.13 |
| PPARGPRMSYGGSTCHAYSNTRDR [RBMY1A1] | 4.1 ± 0.098 | 4.07 ± 0.12 |
| PPDTVSRTGLEKAAAGAVGLERRD [SPDEF] | 5.04 ± 0.15 | 5.29 ± 0.39 |
| PPGAEEPQAPPASRDEAALPELLL [RETREG3] | 5.25 ± 0.31 | 5.39 ± 0.17 |
| PPGLPRVSAYVDTTADLDRKLSFS [SPATS1] | 3.79 ± 0.26 | 3.96 ± 0.23 |
| PPKVKAEDGMQCLQLKETLATQEP [DLC1] | 5.3 ± 0.17 | 5.16 ± 0.2 |
| PPLLGTFPRDHTSLALVQNGDVSA [ANKRD40] | 4.57 ± 0.21 | 4.4 ± 0.41 |
| PPPPRSRGPPRGLRGGRGGSGGTR [RBMX] | 5.11 ± 0.5 | 4.96 ± 0.32 |
| PPTVSQTPVIAATPVPTITANVTS [BRD3] | 4.83 ± 0.12 | 4.76 ± 0.18 |
| PPVRPAGYLLSFHTPGGQNQEILL [TNXB] | 2.38 ± 0.29 | 2.38 ± 0.31 |
| PQDQAGPGGAPRVASRNLFPKDTL [CLPTM1] | 4.41 ± 0.36 | 4.61 ± 0.28 |
| PQELINYVQTVDFMRTDNTCVNLL [KLHL13] | 2.46 ± 0.35 | 2.51 ± 0.42 |
| PQPLSFKEPPLLLGVLHPNTKLRQ [APMAP] | 3.48 ± 0.17 | 3.59 ± 0.2 |
| PSGTPELEVPKPGQPSEPEHGPSP [CHIT1] | 5.52 ± 0.25 | 5.47 ± 0.18 |
| PSLSPGAFSYSSSSRFSSSRLLGS [PRPH] | 3.29 ± 0.23 | 3.28 ± 0.16 |
| PSRAKPPTEGAGSPAKASQASKLR [FBF1] | 5.16 ± 0.28 | 5.2 ± 0.2 |
| PTESEPVTINIQDLLSCSNFAVQH [MATN2] | 3.56 ± 0.5 | 3.37 ± 0.43 |
| PTFMIAVFLPIVVLIFKSILFLPC [STEAP1] | 3.22 ± 0.3 | 3.3 ± 0.46 |
| PVPATAPSPAPAVAAAAAATTAAT [SNAP91] | 5.32 ± 0.16 | 5.25 ± 0.097 |
| PYFKSNDVVCKNQDELRNRSVKVI [FAN1] | 3.78 ± 0.16 | 4.01 ± 0.33 |
| QCSMPLHVAPLLAAAGLHASPMSA [NR2F2] | 2.58 ± 0.26 | 2.63 ± 0.24 |
| QDLAFWYGPRWQEVIPYTPAMQRY [HMOX1] | 2.29 ± 0.2 | 2.36 ± 0.33 |

| Sequence | protein stability index (treatment: DMSO) | protein stability index (treatment: MLN4924 1 uM, 8 h) |
| --- | --- | --- |
| QEAFLVQEVVELPVTERQIEREHL [TBC1D10A] | 4.94 ± 0.25 | 4.71 ± 0.23 |
| QEHKTDEMHTALMEACMDGHVEVA [ANKRD17] | 5.19 ± 0.4 | 5.31 ± 0.21 |
| QEKKRKFLESTDSFNNELKRLCGL [SMARCE1] | 2.87 ± 0.41 | 3.14 ± 0.69 |
| QFTSSSSMKGSCGIGGGIGGGSSR [KRT16] | 3.29 ± 0.26 | 3.48 ± 0.32 |
| QGHLRRLRSRYSVASFKFDAGEVS [MYORG] | 2.93 ± 0.26 | 3.27 ± 0.33 |
| QGLFFDMEAYLPKKNGLYLSLVLG [TMEM120A] | 2.67 ± 0.42 | 2.62 ± 0.23 |
| QGMEVDLVTGLAIEEACYAQTIPT [AUH] | 3.73 ± 0.21 | 3.53 ± 0.2 |
| QHLDPQGAQELLEFTIRDLQRLGE [INTS4] | 3.53 ± 0.4 | 3.81 ± 0.46 |
| QHSVPLQLELRAGAERLDALLADE [TRADD] | 4.63 ± 0.31 | 4.62 ± 0.47 |
| QICRAQGLETLFSKAQELGGAGRE [ZSWIM9] | 3.64 ± 0.23 | 3.66 ± 0.26 |
| QIDQIKRHSNVVILTTSNITEKID [TRIP13] | 3.21 ± 0.28 | 3.4 ± 0.19 |
| QIEKTTNREACRDLSGRRLRDVNH [SDE2] | 4.18 ± 0.24 | 4.11 ± 0.6 |
| QKYDPDKDEWHKVFDLPESLGGIR [KLHL13] | 3.55 ± 0.23 | 3.93 ± 0.29 |
| QLLLQFERLVVLDYIIRNTDRGND [PI4K2A] | 2.98 ± 0.47 | 2.64 ± 0.36 |
| QLPPVVPVSKPGALRRSLSRSMSQ [TCAP] | 3.97 ± 0.13 | 3.96 ± 0.13 |
| QLRLLQAPLQADLTEQVWKVQDAL [SCARA5] | 3.15 ± 0.28 | 3.12 ± 0.3 |
| QNPEAIAAAAMYTFLPDNFSPAKP [MYORG] | 3.79 ± 0.15 | 3.86 ± 0.2 |
| QNPQITQLKIAANPFAKGFRENGR [TBX6] | 3.33 ± 0.29 | 3.35 ± 0.46 |
| QQLHARYVLNLLYETKKHLVQLPN [PPEF2] | 2.66 ± 0.35 | 2.32 ± 0.22 |
| QRAPQLPTWWPLPTQVPAAEDYLT [SPAG8] | 3.12 ± 0.2 | 3.23 ± 0.21 |
| QRIALRLGNGNDKKEMNKSDLNTN [KMT2E] | 4.78 ± 0.12 | 4.47 ± 0.28 |
| QSGRDLQQYQSQAKQLFRKLNEQS [SEC22B] | 3.72 ± 0.29 | 3.83 ± 0.27 |
| QSLTEDLEFRKSMYEEEINETRRK [LMNB1] | 4.99 ± 0.26 | 5.04 ± 0.18 |

| Sequence | protein stability index (treatment: DMSO) | protein stability index (treatment: MLN4924 1 uM, 8 h) |
| --- | --- | --- |
| QSVENCPEDLAQLEELIDMAVLEE [RPAIN] | 5.27 ± 0.15 | 5.27 ± 0.21 |
| QTESELQELSEVLELLSAPELKSL [FAN1] | 4.1 ± 0.19 | 4.11 ± 0.11 |
| QTNSETAVVALTQDQPSEAATGGA [HDAC6] | 5.31 ± 0.2 | 5.42 ± 0.062 |
| QTVDGKHQDLKYISPETMVALLTG [CDC25B] | 2.77 ± 0.43 | 2.8 ± 0.33 |
| QTVGVGRGRFTTYEIRVKTNLPIF [SNX3] | 2.83 ± 0.067 | 3.02 ± 0.22 |
| QTWVRDHHPENGEEAVTVLEDLES [ZNF24] | 5.34 ± 0.21 | 5.43 ± 0.17 |
| QVSPVRRAPSRRHGVRAKVQPQAR [CPN1] | 4.88 ± 0.12 | 4.68 ± 0.13 |
| QVYYFGPCGKYNAMVLELLGPSLE [CSNK1G1] | 3.52 ± 1.8 | 1.92 ± 0.25 |
| QWLKDKILSEEGRRQQAKLKELQA [KCNAB2] | 3.13 ± 0.56 | 3.32 ± 0.13 |
| QYPGNYEQQQILIRQLQEQHYQQY [ACBD3] | 3.17 ± 0.26 | 3.24 ± 0.18 |
| QYQYERYGAVELSGAGRRKNATRE [IRX6] | 4.5 ± 0.39 | 4.54 ± 0.32 |
| RAACFDGHLEVVRYLVGEHQADLE [FEM1A] | 3.31 ± 0.27 | 3.39 ± 0.25 |
| RAKEEERLNKLRLESEGSPETLTN [HACD3] | 5.38 ± 0.23 | 5.28 ± 0.26 |
| RALDRLQEVPHEGPMCDLLWSDPD [PPP2CA] | 4.42 ± 0.34 | 4.66 ± 0.17 |
| RALQAALAESGGSPDVLQMLKIHR [TRADD] | 2.61 ± 0.34 | 2.91 ± 0.25 |
| RAMRYYYKREILERVDGRRLVYKF [ELF3] | 2.49 ± 0.15 | 2.63 ± 0.41 |
| RASATTTITTAAATSVTVPGAGVP [ZBTB22] | 4.49 ± 0.19 | 4.45 ± 0.3 |
| RASPTRTAPLPMPEGPEPAAPGKQ [ELOA2] | 5.4 ± 0.14 | 5.66 ± 0.1 |
| RCHTVPCAGSTALQEPGEPQGPPA [PXN] | 4.89 ± 0.15 | 4.92 ± 0.25 |
| RDFAETHNCVDLMQAAEVFSQKHF [KLHL12] | 3.31 ± 0.23 | 3.21 ± 0.49 |
| RDHHSTHYRASEEEPEYGEEIKGY [CHGB] | 5.1 ± 0.25 | 5.05 ± 0.13 |

From the supplement of paper PMC10567573
